From the supplement of paper PMC6757056
± gives the standard deviation of the averaged measurements.

B1: library; a variant is named by its letters at N, in order (parent)
chain: GCUGUCACCGGUGCUUGGUACGUUAUAUUCAGCCGGUCUGAUGAGUCUNNNNNNAGACGAAACAGC

Legend:
(6R,S)-folinic acid [1] = variants of: B1; experiment: normalized RNA/DNA level without ligand (relative to sTRSVctl = 100) (log10 (% of sTRSVctl)); HEK293T overexpressing SLC46A1; higher = less ribozyme self-cleavage, higher mRNA level; conditions: without (6R,S)-folinic acid; ligand present: no
How it was run: (§1)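 HEK293T cells were transfected with library plasmids carrying ribozyme switches linked to an mCherry reporter, or an eGFP reporter in some ligand experiments, at 4 µg per well of a 6-well plate, with any ligand added 1 h beforehand. After 72 h, total RNA was extracted with EDTA, reverse-transcribed, amplified, barcoded and sequenced. RNA level was defined as RNA reads over DNA reads, normalized to a spiked-in non-cleaving sequence or to the top-ranked sequences. That value was multiplied by 100 and converted to log10, the top set was 25 sequences, and only sequences with ≥100 DNA reads were retained.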

(6R,S)-folinic acid [2] = variants of: B1; experiment: normalized RNA/DNA level with ligand (relative to sTRSVctl = 100) (log10 (% of sTRSVctl)); HEK293T overexpressing SLC46A1; ligand concentration (+) RNA-Seq: 6 mM; higher = less ribozyme self-cleavage, higher mRNA level; conditions: with (6R,S)-folinic acid; ligand present: yes
How it was run: as §1

Variant	normalized RNA/DNA level without ligand (log10) ((6R,S)-folinic acid [1])	normalized RNA/DNA level with ligand (log10) ((6R,S)-folinic acid [2])
CCGUAC	1.99 ± 0.019	2.014 ± 0.017
CCGUAU	2.016 ± 0.0098	2.022 ± 0.0084
CCGUAA	1.981 ± 0.016	1.98 ± 0.032
CCGUAG	1.93 ± 0.035	1.99 ± 0.022
UCUACU	2.019 ± 0.0065	2.03 ± 0.029
UCUACC	2.0547 ± 0.001	2.054 ± 0.018
UCUACA	2.057 ± 0.0079	2.0488 ± 0.002
UCUACG	1.891 ± 0.0021	2.01 ± 0.017
GCUAUG	1.99 ± 0.022	2.02 ± 0.035
GCUAUU	2.054 ± 0.013	2.04 ± 0.041
GCUAUC	2.083 ± 0.0023	2.013 ± 0.019
CCUGUC	2.022 ± 0.0031	2.01 ± 0.041
CCUGUA	2.018 ± 0.012	2.04 ± 0.022
CCUGAC	2 ± 0.0059	1.993 ± 0.0097
CCUGAA	2.0009 ± 0.0006	2 ± 0.044
CCUGAG	1.932 ± 0.019	1.97 ± 0.025
ACUAAU	1.985 ± 0.007	2.01 ± 0.03
GCGUUA	2.003 ± 0.0039	2.02 ± 0.036
GCGUUC	2.017 ± 0.0029	2.034 ± 0.02
GCGUUU	2.037 ± 0.017	2.04 ± 0.022
GCGUUG	2.009 ± 0.0022	2.05 ± 0.041
UCUGUA	1.961 ± 0.0025	2.04 ± 0.026
ACUGCU	2.0021 ± 0.002	2.008 ± 0.015

Variant	normalized RNA/DNA level without ligand (log10) ((6R,S)-folinic acid [1])	normalized RNA/DNA level with ligand (log10) ((6R,S)-folinic acid [2])
ACUGCA	2.02 ± 0.013	2.05 ± 0.009
ACUGCG	1.902 ± 0.011	2.013 ± 0.013
ACUGCC	2.06 ± 0.024	2.06 ± 0.039
CCUACG	2.072 ± 0.0081	2.0351 ± 0.0014
CCUACC	2.0594 ± 0.00016	2.04 ± 0.041
CCUACU	2.062 ± 0.0069	2.04 ± 0.0079
GCUACG	2.026 ± 0.0068	2.065 ± 0.0045
GCUACC	2.06 ± 0.023	2.05 ± 0.033
GCUACU	2.019 ± 0.0099	1.98 ± 0.043
CCUAAA	1.9908 ± 0.0014	2.01 ± 0.028
CCUAAC	2.041 ± 0.0058	2.038 ± 0.017
UCUGCA	1.9967 ± 0.0014	2.06 ± 0.022
UCUGCU	2.069 ± 0.0056	2.07 ± 0.0045
UCUGCC	1.981 ± 0.0055	2.02 ± 0.025
UCUGCG	1.826 ± 0.008	2.03 ± 0.034
UCUGGU	1.9654 ± 0.0015	2.02 ± 0.032
UCUGGC	2.03 ± 0.022	2.0358 ± 0.00061
GCUGGC	1.964 ± 0.017	1.916 ± 0.0083
GCUGGA	2.06 ± 0.0022	2.07 ± 0.046
GCUGGG	1.979 ± 0.0048	2.01 ± 0.021
ACUGUA	1.9633 ± 7.1e-05	2.026 ± 0.014
GCUCAG	1.96 ± 0.0025	2.02 ± 0.03
CCGGGA	2.039 ± 0.0033	2.02 ± 0.054

Variant	normalized RNA/DNA level without ligand (log10) ((6R,S)-folinic acid [1])	normalized RNA/DNA level with ligand (log10) ((6R,S)-folinic acid [2])
CCGGGU	2.07 ± 0.036	2.05 ± 0.04
CCGGGC	2.102 ± 0.01	2.073 ± 0.0025
CCGGGG	1.985 ± 0.01	2.01 ± 0.049
ACGUCG	2 ± 0.022	2.06 ± 0.014
ACGUCA	2.037 ± 0.0081	2.027 ± 0.0046
ACGUCC	2.03 ± 0.023	2 ± 0.068
ACGUCU	2.04 ± 0.028	2.025 ± 0.013
UCUAUG	1.832 ± 0.017	2.022 ± 0.0024
UCUAUC	2.07 ± 0.024	2.062 ± 0.0087
UCUAUU	2.048 ± 0.0024	2.046 ± 0.0024
UCUAUA	2 ± 0.032	2.04 ± 0.025
ACGGGU	1.989 ± 0.0096	2.04 ± 0.034
ACGGGC	2.097 ± 0.0034	2.09 ± 0.031
ACGGGG	1.997 ± 0.018	2.065 ± 0.02
ACUAGC	2 ± 0.011	2.02 ± 0.025
ACUAGG	1.912 ± 0.015	1.99 ± 0.038
ACUAGA	1.969 ± 0.014	2.01 ± 0.039
ACUAGU	2.02 ± 0.02	2.05 ± 0.026
GCUGCG	2.002 ± 0.0047	2.05 ± 0.029
GCUGCU	2.04 ± 0.027	2.055 ± 0.018
GCUGCA	2.01 ± 0.022	2.03 ± 0.047
ACUACA	1.99 ± 0.021	2.01 ± 0.021
ACUACG	1.938 ± 0.0043	2.006 ± 0.02

Variant	normalized RNA/DNA level without ligand (log10) ((6R,S)-folinic acid [1])	normalized RNA/DNA level with ligand (log10) ((6R,S)-folinic acid [2])
ACUACU	2.022 ± 0.02	2.041 ± 0.0021
ACUACC	2.03 ± 0.0033	2.01 ± 0.04
GCUCGG	2.034 ± 0.016	2.03 ± 0.026
GCUCGA	2.039 ± 0.0067	2.02 ± 0.065
GCUCGC	2.02 ± 0.027	2.0264 ± 0.00071
UCGUAG	1.8378 ± 0.0006	2 ± 0.052
UCGUAU	1.97 ± 0.029	2 ± 0.07
ACGUGC	2.026 ± 0.0053	2.02 ± 0.055
ACGUGG	1.954 ± 0.0043	2.05 ± 0.025
ACGUGU	2.06 ± 0.028	2.06 ± 0.024
GCGUCA	2.06 ± 0.025	2.08 ± 0.031
GCGUCU	2.064 ± 0.0062	2.07 ± 0.034
GCGUCC	2.01 ± 0.0034	1.997 ± 0.0077
GCGUCG	2.042 ± 0.0035	2.07 ± 0.035
CCGGCU	2.08 ± 0.029	2.051 ± 0.013
ACUCUC	2.086 ± 0.0057	2.06 ± 0.024
ACUCUG	1.925 ± 0.018	2 ± 0.025
ACUCUA	2.005 ± 0.0056	2.01 ± 0.06
ACUCUU	2.0142 ± 0.0018	2.01 ± 0.046
CCUCGG	2.078 ± 0.0042	1.99 ± 0.012
CCUCGC	2.08 ± 0.03	2.033 ± 0.017
CCUCGA	1.998 ± 0.011	2.02 ± 0.029
CCUCGU	2.01 ± 0.037	2.01 ± 0.07

Variant	normalized RNA/DNA level without ligand (log10) ((6R,S)-folinic acid [1])	normalized RNA/DNA level with ligand (log10) ((6R,S)-folinic acid [2])
GCUCCG	2.027 ± 0.0072	2.05 ± 0.055
GCUCCC	2.06 ± 0.031	2.06 ± 0.036
GCUCCU	2.09 ± 0.024	2.07 ± 0.04
GCUCCA	2.02 ± 0.019	2.03 ± 0.037
ACGGCU	2.048 ± 0.014	2.04 ± 0.044
ACUCCA	2.056 ± 0.0064	2.04 ± 0.054
ACUCCC	2.054 ± 0.0096	2.02 ± 0.048
ACUCCU	2.075 ± 0.0094	2.08 ± 0.05
ACUCCG	2.001 ± 0.014	2.03 ± 0.064
CCGUCC	2.06 ± 0.021	2.06 ± 0.039
CCGUCA	2.04 ± 0.031	2.05 ± 0.038
CCGUCG	2.02 ± 0.034	2.021 ± 0.015
CCGUCU	2.04 ± 0.0053	2.05 ± 0.061
CCUAGG	2.05 ± 0.03	2.043 ± 0.0025
CCUAGA	2.05 ± 0.016	2.05 ± 0.046
CCUAGU	2.074 ± 0.0064	2.06 ± 0.029
GCGGUG	2.032 ± 0.0067	2.07 ± 0.07
GCGGUC	2.06 ± 0.024	2.06 ± 0.056
GCGGUU	2.07 ± 0.0088	2.02 ± 0.05
GCGGUA	1.98 ± 0.017	2.011 ± 0.014
ACGUAU	1.943 ± 0.005	2.02 ± 0.008
ACGUAC	2.018 ± 0.0052	2.02 ± 0.046
UCUCUA	1.997 ± 0.0062	2.01 ± 0.04
